Source: FireProtDB (doi:10.1016/j.bpc.2007.01.004)
Values joined by “and” are separate entries in the source; they are usually repeats but may differ in a detail not shown here. Equal values may be shown once.

Settings: Alicyclobacillus acidocaldarius subsp. acidocaldarius, pH 7.5, Phosphate 20 mM, reversible: Yes; for denaturant midpoint (higher = more stable): 20 °C

With wild type (from UniProt Q7SIG1) the “denaturant midpoint (higher = more stable)” value (shortened to “denaturant midpoint”) (GdnHCl, CD) was 1.9 M and 2.2 M, the “denaturant midpoint” value (GdnHCl, Fluorescence) was 1.9 M and 2 M and 2.2 M and the “denaturant midpoint” value (Urea, CD) was 5.9 M and 4.6 M. The Tm (Thermal, CD) was 91 °C and 86 °C, the “unfolding enthalpy (van 't Hoff)” value (Thermal, CD) was 105 kcal/mol and 122 kcal/mol and 62.1 kcal/mol and the Tm (Thermal, DSC) was 86 °C. For the same substance, the “heat capacity change of unfolding” value (Thermal, DSC) was 3.82 kcal/mol/K, the “unfolding enthalpy (calorimetric)” value (Thermal, DSC) was 265 kcal/mol and 179 kcal/mol and the “unfolding enthalpy (van 't Hoff)” value (Thermal, DSC) was 127 kcal/mol and 83.7 kcal/mol. The “heat capacity change of unfolding” value (Thermal, DSC, transition: 3) was 1.67 kcal/mol/K and 2.15 kcal/mol/K.
